{"source": "patent US6994974B1", "about": "“Intracellular amyloid-beta binding (ERAB) polypeptide-related assays” (The trustees of Columbia University in the city of New York, priority 1997, dated 2006)", "molecules": {"B1": {"name": "TrcHis-CAT: control fusion protein, TrcHis-chloramphenicol acetyltransferase (protein)", "chain": "MEKKITGYTTVDISQWHRKEHFEAFQSVAQCTYNQTVQLDITAFLKTVKKNKHKFYPAFIHILARLMNAHPEFRMAMKDGELVIWDSVHPCYTVFHEQTETFSSLWSEYHDDFRQFLHIYSQDVACYGENLAYFPKGFIENMFFVSANPWVSFTSFDLNVANMDNFFAPVFTMGKYYTQGDKVLMPLAIQVHHAVCDGFHVGRMLNELQQYCDEWQGGA", "modifications": "left off: small tags and cut ends", "notes": "control fusion protein, TrcHis-chloramphenicol acetyltransferase"}}, "target": "T1, amyloid-beta peptide (1–42) (Homo sapiens, UniProt P05067)", "T1 construct": "the region encoding A4 (APP amino acids 653 to 694)", "assay": "Binding of ^125I-TrcHis-ERAB polypeptide to amyloid-beta peptide (1–42) adsorbed to microtiter wells", "settings": "excess unlabelled protein", "procedure": "FIGS. 2A, 2B, 2C, 2D, 2E, 2F, and 2G. […] FIG. 2A. SDS-PAGE (12%; reduced) followed by immunoblotting of TrcHis-ERAB polypeptide (FIG. 2A, lane 1; 2 μg) and TrcHis-chloramphenicol acetyltransferase (CAT; FIG. 2A, lane 2; 2 μg) fusion proteins using anti-ERAB polypeptide IgG (3 μg/ml). […] FIGS. 2B and 2C. […] Binding was analyzed by nonlinear least squares analysis using the method of Klotz and Hunston (60). FIG. 2E. […] FIGS. 2F and 2G. […] 0 indicates wells coated with albumin alone. […] Control TrcHis-CAT construct (Invitrogen) was also used to transform E. coli and the fusion protein was purified as above. Antibody to ERAB polypeptide was prepared by immunizing rabbits with ERAB polypeptide-derived peptides, corresponding to residues 100–116 and 133–147, conjugated to keyhole limpet hemocyanin. […] (for ERAB polypeptide) or overnight at 4° C. […] Unbound radioactivity was removed by washing wells five times with ice cold phosphate-buffered saline containing Tween 20 (0.05%), and bound radioactivity was eluted by incubation with Nonidet P-40 (1%)."}
{"molecule": "B1", "values": [{"measurement": "Inhibition of ^125I-TrcHis-ERAB binding to adsorbed amyloid-beta peptide", "result": "did not inhibit"}]}
